Measured values from patent publication US7960155B1, “Cytochrome p450 monooxygenases and their use for oxidizing organic compounds” (BASF Aktiengesellschaft, priority 1999, dated 2011).

Test system: blue pigment (indigo/indirubin) production
Conditions: 2-liter flask containing 300 ml of TB medium for the triple mutant

B1: WT: wild-type cytochrome P450 monooxygenase BM-3 from Bacillus megaterium (SEQ ID NO:2) (protein, listed as Bacillus megaterium)
chain: TIKEMPQPKTFGELKNLPLLNTDKPVQALMKIADELGEIFKFEAPGRVTRYLSSQRLIKEACDESRFDKNLSQALKFVRDFAGDGLFTSWTHEKNWKKAHNILLPSFSQQAMKGYHAMMVDIAVQLVQKWERLNADEHIEVPEDMTRLTLDTIGLCGFNYRFNSFYRDQPHPFITSMVRALDEAMNKLQRANPDDPAYDENKRQFQEDIKVMNDLVDKIIADRKASGEQSDDLLTHMLNGKDPETGEPLDDENIRYQIITFLIAGHETTSGLLSFALYFLVKNPHVLQKAAEEAARVLVDPVPSYKQVKQLKYVGMVLNEALRLWPTAPAFSLYAKEDTVLGGEYPLEKGDELMVLIPQLHRDKTIWGDDVEEFRPERFENPSAIPQHAFKPFGNGQRACIGQQFALHEATLVLGMMLKHFDFEDHTNYELDIKETLTLKPEGFVVKAKSKKIPLGGIPSPSTEQSAKKVRKKAENAHNTPLLVLYGSNMGTAEGTARDLADIAMSKGFAPQVATLDSHAGNLPREGAVLIVTASYNGHPPDNAKQFVDWLDQASADEVKGVRYSVFGCGDKNWATTYQKVPAFIDETLAAKGAENIADRGEADASDDFEGTYEEWREHMWSDVAAYFNLDIENSEDNKSTLSLQFVDSAADMPLAKMHGAFSTNVVASKELQQPGSARSTRHLEIELPKEASYQEGDHLGVIPRNYEGIVNRVTARFGLDASQQIRLEAEEEKLAHLPLAKTVSVEELLQYVELQDPVTRTQLRAMAAKTVCPPHKVELEALLEKQAYKEQVLAKRLTMLELLEKYPACEMKFSEFIALLPSIRPRYYSISSSPRVDEKQASITVSVVSGEAWSGYGEYKGIASNYLAELQEGDTITCFISTPQSEFTLPKDPETPLIMVGPGTGVAPFRGFVQARKQLKEQGQSLGEAHLYFGCRSPHEDYLYQEELENAQSEGIITLHTAFSRMPNQPKTYVQHVMEQDGKKLIELLDQGAHFYICGDGSQMAPAVEATLMKSYADVHQVSEADARLWLQQLEEKGRYAKDVWAG
- blue pigment production in culture: does not have the ability to produce the blue indigo-containing pigment
